Experimental data as given in PMC11723632 (PLOS Pathogens, 2024).

Target: EBOV sGP (secreted form of GP) (Zaire ebolavirus, Mayinga-76 …, UniProt P60170)
Assay: ELISA
Settings: both partners purified

EBOV sGP (secreted form of GP), sequence (P60170 33-305): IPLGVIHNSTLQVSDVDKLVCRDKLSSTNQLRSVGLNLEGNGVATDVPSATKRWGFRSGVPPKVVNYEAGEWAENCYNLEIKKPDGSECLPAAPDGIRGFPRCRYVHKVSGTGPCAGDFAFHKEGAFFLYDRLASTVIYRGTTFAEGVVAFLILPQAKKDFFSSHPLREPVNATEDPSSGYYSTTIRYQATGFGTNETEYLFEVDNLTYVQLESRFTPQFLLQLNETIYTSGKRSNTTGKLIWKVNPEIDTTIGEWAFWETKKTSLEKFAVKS

| Binder | binding result |
| --- | --- |
| Nanosota-EB2-His (VHH) VHH: QVQLQESGGGVVQAGGSLRLSCSASGRTFSNYAMAWFRQAPGKDREFAAGINYNGERTAYADSVKGRFTISRDDAKNTVYLQMNSLKPEDTAVYSCAARPWSIANLAYTYDSWGQGTQVTVSS | no binding |
| Nanosota-EB1-His (VHH) VHH: QVQLQESGGGQVQAGGSLRLSCAASGSTSVIYAMGWYRQAPGKQRELVAAITRGVGSTNYADSVKGRFTISRDNAKNTMYLQMNSLKPEDTAVYYCNARLLVAPPPYEYDYWGQGTQVTVSS | binds |
